Experimental data as given in patent EP1237001A1, “SCREENING METHOD” (Takeda Chemical Industries, Ltd., priority 1999, dated 2001).

Molecular target: T1, FM-3 (Homo sapiens, UniProt Q9HB89)
T1 sequence (Q9HB89 24-426 limits assumed): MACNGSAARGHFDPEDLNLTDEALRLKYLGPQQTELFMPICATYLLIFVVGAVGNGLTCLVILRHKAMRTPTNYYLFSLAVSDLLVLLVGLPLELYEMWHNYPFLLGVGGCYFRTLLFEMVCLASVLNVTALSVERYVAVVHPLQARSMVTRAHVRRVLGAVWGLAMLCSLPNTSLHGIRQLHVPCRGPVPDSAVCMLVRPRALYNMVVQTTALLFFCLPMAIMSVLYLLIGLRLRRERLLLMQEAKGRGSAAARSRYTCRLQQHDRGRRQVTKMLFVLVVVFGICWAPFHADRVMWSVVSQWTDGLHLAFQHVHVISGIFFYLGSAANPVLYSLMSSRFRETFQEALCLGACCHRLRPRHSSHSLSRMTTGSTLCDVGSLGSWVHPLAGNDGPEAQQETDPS
Assay: not given
Conditions: labeled ligand; cells confirmed to express FM-3 on the cell membrane; Tan et al., Genomics 52, 223-229, 1998; cited from earlier work
For “Neurotensin: labeled Neurotensin, peptide ligand of the Neurotensin receptor”, the “binding with cells expressing FM-3” value is given as “did not bind”.

Molecular target: T2, FM-3 (Homo sapiens, UniProt Q9HB89)
T2 sequence (Q9HB89 1-426): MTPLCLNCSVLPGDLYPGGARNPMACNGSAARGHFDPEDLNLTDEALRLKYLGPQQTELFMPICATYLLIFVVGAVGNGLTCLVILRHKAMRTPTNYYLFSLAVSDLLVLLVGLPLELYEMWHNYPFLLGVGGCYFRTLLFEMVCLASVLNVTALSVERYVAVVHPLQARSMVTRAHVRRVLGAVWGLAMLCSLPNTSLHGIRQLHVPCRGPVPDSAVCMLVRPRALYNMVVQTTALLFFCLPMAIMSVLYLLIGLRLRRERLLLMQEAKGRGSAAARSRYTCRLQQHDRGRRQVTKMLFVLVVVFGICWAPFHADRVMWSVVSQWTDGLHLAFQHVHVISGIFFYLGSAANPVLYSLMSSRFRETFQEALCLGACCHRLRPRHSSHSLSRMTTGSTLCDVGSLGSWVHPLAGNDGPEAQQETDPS
Assay: not given
Conditions: free intracellular calcium ion release measured as an index; Tan et al.; cited from earlier work
For endothelin, the “activation of FM-3” value is listed as “not detected”.
In the case of “growth hormone releasing hormone: peptide examined for activation of FM-3”, the “activation of FM-3” value is listed as “not detected”.
For “galanin: peptide examined for activation of FM-3”, the “activation of FM-3” value is given as “not detected”.
In the case of “somatostatin: peptide examined for activation of FM-3”, the “activation of FM-3” value is given as “not detected”.
For thyrotropin releasing hormone, the “activation of FM-3” value is given as “not detected”.
In the case of “VIP: vasoactive intestinal peptide, examined for activation of FM-3”, the “activation of FM-3” value is listed as “not detected”.
For “calcitonin: peptide examined for activation of FM-3”, the “activation of FM-3” value is given as “not detected”.

Molecular target: T1, FM-3
Assay: site sensor assay of cell-stimulating activity (extracellular acidification rate)
Assay type: cell-based
Set-up: expressed in transfected cells
Conditions: FM-3-expressing CHO cells versus mock CHO cells; exposure for 7 minutes and 2 seconds; 3 cycles before exposure set as 100 %; Fig. 1
Method: Pig Neuromedin U-8 at the concentration indicated in FIG. 1 was added to FM-3-expressing CHO cells (●) and mock CHO cells (○) for 7 minutes and 2 seconds in the site sensor assay. The maximum value of acidification rate in the reaction was plotted.
FM-3-expressing CHO cells and mock CHO cells, which were cultured in a cell-cultured container, were digested with trypsin and dissociated. The numbers of cells are counted. Then, the cells were inoculated in the capsules for site sensor (2.7 x 10^5 cells/capsule). After incubating them overnight, the capsules containing the cells were transferred to the sensor chamber for measurement, and then mounted to the workstation of the site sensor. The portion containing the cells was refluxed with low-buffered RMPI medium supplemented with 0.1% bovine serum albumin, and it was left still until the acidification rate became stable. The measurement of the acidification rate was made during pumping cycle of ON for 80 seconds and OFF for 40 seconds(2 minutes to one cycle). A rate of change in extracellular pH from 8 to 30 seconds after the pumping off was calculated as an acidification rate with the site sensor.
Pig Neuromedin-8 (BACHEM, H-5505, SEQ ID NO:5) was dissolved in distilled water at the concentration of 10mM, and then the gradually diluted solutions were prepared with low buffered RPMI medium containing 0.1% BSA. […]
For “Pig Neuromedin-8: pig Neuromedin U-8, peptide of 8 amino acid residues, BACHEM, H-5505, SEQ ID NO:5”, the “cell-stimulating activity (acidification rate)” value was “detected in a does-dependent manner and specific to FM-3-expressing CHO cells”.
